The record followed here is patent US20020159989A1 (BETH ISRAEL DEACONESS MEDICAL CENTER, published 2002).

This assay concerns the target T1, mouse TSP-1-TSR, expressed as a GAL4 DNA binding domain fusion (pAS2-1TSP1 type 1 construct) (mouse, UniProt P04386 1-147; P35441 377-549).
T1 construct: range 1-147;domain: TSR; also called TSR domain of TSP-1; bait
Nature of the assay: yeast two-hybrid counter-screen (HIS3 / lacZ reporters).

T1 sequence (P04386 other isoform, or with tags, fused parts or gaps limits assumed): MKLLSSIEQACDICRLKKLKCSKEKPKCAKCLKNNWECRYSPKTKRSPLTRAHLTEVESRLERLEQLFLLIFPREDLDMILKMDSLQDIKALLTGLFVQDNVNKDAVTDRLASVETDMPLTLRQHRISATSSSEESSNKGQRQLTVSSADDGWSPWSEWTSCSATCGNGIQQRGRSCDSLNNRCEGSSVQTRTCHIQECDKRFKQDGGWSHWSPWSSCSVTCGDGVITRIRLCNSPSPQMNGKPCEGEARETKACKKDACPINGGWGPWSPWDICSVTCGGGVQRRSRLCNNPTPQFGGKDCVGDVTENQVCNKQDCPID

B1: peptide of SEQ ID NO:1, expressed as a GAL4 activation domain fusion (prey clone from the pACT2 NIH3T3 cDNA library) (peptide)
chain: ANFNQSGNIADSSLSFTFTNSSNGPNLITTQTNSQALSQPIASSNVHDNFMNNEITASKIDDGNNSKPLSPGWTDQTAYNAFGITTGMFNTTTMDDVYNYLFDDEDTPPNPKKEAPWNCCPVSCCGNCCFFRALQSCPQG
notes: range 768-881; Yeast two-hybrid prey; also called peptide of the invention
With B1, the binding result is reported as “no binding”.
